From patent US20210371499A1 (University of California, published 2021) come the findings set out here.

The target in this assay is l[…]/HLA-A*02:01 (l = D-leucine) (human). Kind of assay: SEC TAPBPR binding assay.

B1: TAPasin Binding Protein Related (TAPBPR), luminal domain, His6-tagged (other)
chain: KPHPAEGQWRAVDVVLDCFLAKDGAHRGALASSEDRARASLVLKQVPVLDDGSLEDFTDFQGGTLAQDDPPIIFEASVDLVQIPQAEALLHADCSGKEVTCEISRYFLQMTETTVKTAAWFMANMQVSGGGPSISLVMKTPRVTKNEALWHPTLNLPLSPQGTVRTAVEFQVMTQTQSLSFLLGSSASLDCGFSMAPGLDLISVEWRLQHKGRGQLVYSWTAGQGQAVRKGATLEPAQLGMARDASLTLPGLTIQDEGTYICQITTSLYRAQQIIQLNIQASPKVRLSLANEALLPTLICDIAGYYPLDVVVTWTREELGGSPAQVSGASFSSLRQSVAGTYSISSSLTAEPGSAGATYTCQVTHISLEEPLGASTQVVPPERR
notes: domain: luminal domain; Molecular chaperone; also called TAPBR; HIS-Tagged TAPBPR; not shown: His6 tag
Turning to B1, the binding result is “no binding”.
